{
  "source": "paper PMC9896928",
  "biological_target": "glutathione transferase (GST) tag-fused cGAS",
  "experiment": "SEC + other: fluorescence correlation spectroscopy",
  "data": [
    {"substance": "glutathione transferase (GST) tag-fused cGAS (enzyme)", "values": [
      {"measurement": "stoichiometry N", "result": 2}
    ]}
  ]
}
